Results taken from PMC5452045.

Experiments:
His‐Mis18β (human) = His‐Mis18β (human) (UniProt O43482); experiment: SEC-MALS; 100 μl of about 1 mg/ml on Superdex 200 10/300 GL; 50 mM HEPES pH 8.0, 150 mM NaCl, 1 mM TCEP; 22°C; subunit numbers from measured against calculated MW
His‐GFP‐Mis18β (human) = His‐GFP‐Mis18β (human) (UniProt O43482); experiment: as above
Sequence of His‐GFP‐Mis18β (human) (O43482 whole entry): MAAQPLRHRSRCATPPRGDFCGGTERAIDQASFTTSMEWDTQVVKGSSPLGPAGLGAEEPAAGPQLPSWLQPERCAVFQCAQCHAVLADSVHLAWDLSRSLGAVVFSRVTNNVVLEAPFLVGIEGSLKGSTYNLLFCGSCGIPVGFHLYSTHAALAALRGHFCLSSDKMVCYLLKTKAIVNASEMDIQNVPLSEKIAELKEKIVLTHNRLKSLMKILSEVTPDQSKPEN

Sequence of His‐Mis18α (Q9NYP9 whole entry): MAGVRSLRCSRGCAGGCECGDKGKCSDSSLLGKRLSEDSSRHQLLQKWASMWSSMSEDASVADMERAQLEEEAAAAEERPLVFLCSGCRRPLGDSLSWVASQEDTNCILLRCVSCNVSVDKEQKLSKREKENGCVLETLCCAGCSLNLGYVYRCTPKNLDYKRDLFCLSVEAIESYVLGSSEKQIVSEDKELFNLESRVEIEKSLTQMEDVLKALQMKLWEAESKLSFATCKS
Sequence of His‐GFP‐Mis18α (Q9NYP9 whole entry): as above
Sequence of His‐Mis18β (human) (O43482 whole entry): as the sequence (O43482 whole entry) above

Substance	stoichiometry N (His-GFP-Mis18α per His-Mis18β (4:2)) (His‐Mis18β (human))	stoichiometry N (His-Mis18α per His-GFP-Mis18β (4:2)) (His‐GFP‐Mis18β (human))
His‐GFP‐Mis18α (from UniProt Q9NYP9 1-233) (natural protein)	2	–
His‐Mis18α (from UniProt Q9NYP9 1-233) (natural protein)	–	2
